From US20250388669A1 (published 2025)

Key:
PD-1 (binding assay) = PD-1 (binding assay) (UniProt Q15116 25-167, limits assumed); experiment: FCM or ELISA, graded
PD-1 = target: T1, PD-1 (human, UniProt Q15116 25-167, limits assumed); experiment: FCM or ELISA
T1 construct: The reporter assay used Jurkat T cells expressing human PD-1
T1 sequence (Q15116 25-167 limits assumed): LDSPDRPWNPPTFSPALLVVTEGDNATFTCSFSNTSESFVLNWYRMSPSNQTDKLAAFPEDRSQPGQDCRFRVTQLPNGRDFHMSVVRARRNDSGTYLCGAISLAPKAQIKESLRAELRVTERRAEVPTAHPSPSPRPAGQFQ

Sequence of PD-1 (binding assay) (Q15116 25-167 limits assumed): as above

| Binder | binding result (PD-1 (binding assay)) | binding result (PD-1) |
| --- | --- | --- |
| Ly2280 (bispecific antibody, PD-1 Fabs (Ly516) x central CD40 Fv (TM383)) heavy 1: not shown heavy 2: QVTLKESGPALVKPTQTLTLTCTFSGFSLSTSGTCVSWIRQPPGKALEWLATICWEDSKGYNPSLKSRLTISKDTSKNQAVLTMTNMDPVDTATYYCARREDSGYFWFPYWGQGTLVTVSSASTKGPSVFPLAPSSKSTSGGTAALGCLVKDYFPEPVTVSWNSGALTSGVHTFPAVLQSSGLYSLSSVVTVPSSSLGTQTYICNVNHKPSNTKVDKKVEPKSCGGGGSGGGGSGGGGSGGGGSDIQMTQSPSSVSASVGDRVTITCRASQGIYSWLAWYQQKPGKAPNLLIYTASTLQSGVPSRFSGSGSGTDFTLTISSLQPEDFATYYCQQANIFPLTFGGGTKVEIKGGGGSDKTHTCPPCPAPEAAGPSVFLFPPKPKDTLMISRTPEVTCVVVDVSHEDPEVKFNWYVDGVEVHNAKTKPREEQYNSTYRVVSVLTVLHQDWLNGKEYKCKVSNKALPAPIEKTISKAKGQPREPQVYTLPPSREEMTKNQVSLSCAVKGFYPSDIAVEWESNGQPENNYKTTPPVLDSDGSFFLVSKLTVDKSRWQQGNVFSCSVMHEALHNRFTQKSLSLSPG light: NIQMTQSPSSLSASVGDRVTITCKAGQNVNNYLAWYQQKPGKAPKVLIFNANSLQTGVPSRFSGSGSGTDFTLTISSLQPEDFATYYCQQYNSWPTFGGGTKVEIKRTVAAPSVFIFPPSDEQLKSGTASVVCLLNNFYPREAKVQWKVDNALQSGNSQESVTEQDSKDSTYSLSSTLTLSKADYEKHKVYACEVTHQGLSSPVTKSFNRGEC | binds |  |
| Ly2281 (bispecific antibody, PD-1/CD137: two PD-1 Fabs, central CD137 Fv) chain 1: QVTLKESGPALVKPTQTLTLTCTFSGFSLSTSGTCVSWIRQPPGKALEWLATICWEDSKGYNPSLKSRLTISKDTSKNQAVLTMTNMDPVDTATYYCARREDSGYFWFPYWGQGTLVTVSSASTKGPSVFPLAPSSKSTSGGTAALGCLVKDYFPEPVTVSWNSGALTSGVHTFPAVLQSSGLYSLSSVVTVPSSSLGTQTYICNVNHKPSNTKVDKKVEPKSCGGGGSGGGGSGGGGSGGGGSQVQLVQSGAEVKKPGASVKVSCKASGYTFAGFEMHWVRQAPGQGLEWMGAIDPKTGGTDYNQKFKDRVTMTRDTSISTAYMELSRLRSDDTAVYYCARDLGYFDVWGQGTLVTVSSGGGGSDKTHTCPPCPAPEAAGPSVFLFPPKPKDTLMISRTPEVTCVVVDVSHEDPEVKFNWYVDGVEVHNAKTKPREEQYNSTYRVVSVLTVLHQDWLNGKEYKCKVSNKALPAPIEKTISKAKGQPREPQVYTLPPSREEMTKNQVSLWCLVKGFYPSDIAVEWESNGQPENNYKTTPPVLDSDGSFFLYSKLTVDKSRWQQGNVFSCSVMHEALHNHYTQKSLSLSPG chain 2: QVTLKESGPALVKPTQTLTLTCTFSGFSLSTSGTCVSWIRQPPGKALEWLATICWEDSKGYNPSLKSRLTISKDTSKNQAVLTMTNMDPVDTATYYCARREDSGYFWFPYWGQGTLVTVSSASTKGPSVFPLAPSSKSTSGGTAALGCLVKDYFPEPVTVSWNSGALTSGVHTFPAVLQSSGLYSLSSVVTVPSSSLGTQTYICNVNHKPSNTKVDKKVEPKSCGGGGSGGGGSGGGGSGGGGSDIQMTQSPSSLSASVGDRVTITCRASQDIRSNLNWYQQKPGGAVKLLIYYTSRLHSGVPSRFSGSGSGTDYTLTISSLQPEDFATYFCQQSEKLPRTFGGGTKVEIRGGGGSDKTHTCPPCPAPEAAGPSVFLFPPKPKDTLMISRTPEVTCVVVDVSHEDPEVKFNWYVDGVEVHNAKTKPREEQYNSTYRVVSVLTVLHQDWLNGKEYKCKVSNKALPAPIEKTISKAKGQPREPQVYTLPPSREEMTKNQVSLSCAVKGFYPSDIAVEWESNGQPENNYKTTPPVLDSDGSFFLVSKLTVDKSRWQQGNVFSCSVMHEALHNRFTQKSLSLSPG light: NIQMTQSPSSLSASVGDRVTITCKAGQNVNNYLAWYQQKPGKAPKVLIFNANSLQTGVPSRFSGSGSGTDFTLTISSLQPEDFATYYCQQYNSWPTFGGGTKVEIKRTVAAPSVFIFPPSDEQLKSGTASVVCLLNNFYPREAKVQWKVDNALQSGNSQESVTEQDSKDSTYSLSSTLTLSKADYEKHKVYACEVTHQGLSSPVTKSFNRGEC |  | binds |
| Ly2396 (bispecific antibody, human IgG1, kappa, PD-1/CD137: two PD-1 Fabs, terminal CD137 Fv) chain 1: QVTLKESGPALVKPTQTLTLTCTFSGFSLSTSGTCVSWIRQPPGKALEWLATICWEDSKGYNPSLKSRLTISKDTSKNQAVLTMTNMDPVDTATYYCARREDSGYFWFPYWGQGTLVTVSSASTKGPSVFPLAPSSKSTSGGTAALGCLVKDYFPEPVTVSWNSGALTSGVHTFPAVLQSSGLYSLSSVVTVPSSSLGTQTYICNVNHKPSNTKVDKKVEPKSCDKTHTCPPCPAPEAAGPSVFLFPPKPKDTLMISRTPEVTCVVVDVSHEDPEVKFNWYVDGVEVHNAKTKPREEQYNSTYRVVSVLTVLHQDWLNGKEYKCKVSNKALPAPIEKTISKAKGQPREPQVYTLPPSREEMTKNQVSLWCLVKGFYPSDIAVEWESNGQPENNYKTTPPVLDSDGSFFLYSKLTVDKSRWQQGNVFSCSVMHEALHNHYTQKSLSLSPGGGGGSGGGGSGGGGSGGGGSQVQLVQSGAEVKKPGASVKVSCKASGYTFAGFEMHWVRQAPGQGLEWMGAIDPKTGGTDYNQKFKDRVTMTRDTSISTAYMELSRLRSDDTAVYYCARDLGYFDVWGQGTLVTVSS chain 2: QVTLKESGPALVKPTQTLTLTCTFSGFSLSTSGTCVSWIRQPPGKALEWLATICWEDSKGYNPSLKSRLTISKDTSKNQAVLTMTNMDPVDTATYYCARREDSGYFWFPYWGQGTLVTVSSASTKGPSVFPLAPSSKSTSGGTAALGCLVKDYFPEPVTVSWNSGALTSGVHTFPAVLQSSGLYSLSSVVTVPSSSLGTQTYICNVNHKPSNTKVDKKVEPKSCDKTHTCPPCPAPEAAGPSVFLFPPKPKDTLMISRTPEVTCVVVDVSHEDPEVKFNWYVDGVEVHNAKTKPREEQYNSTYRVVSVLTVLHQDWLNGKEYKCKVSNKALPAPIEKTISKAKGQPREPQVYTLPPSREEMTKNQVSLSCAVKGFYPSDIAVEWESNGQPENNYKTTPPVLDSDGSFFLVSKLTVDKSRWQQGNVFSCSVMHEALHNRFTQKSLSLSPGGGGGSGGGGSGGGGSGGGGSDIQMTQSPSSLSASVGDRVTITCRASQDIRSNLNWYQQKPGGAVKLLIYYTSRLHSGVPSRFSGSGSGTDYTLTISSLQPEDFATYFCQQSEKLPRTFGGGTKVEIR light: NIQMTQSPSSLSASVGDRVTITCKAGQNVNNYLAWYQQKPGKAPKVLIFNANSLQTGVPSRFSGSGSGTDFTLTISSLQPEDFATYYCQQYNSWPTFGGGTKVEIKRTVAAPSVFIFPPSDEQLKSGTASVVCLLNNFYPREAKVQWKVDNALQSGNSQESVTEQDSKDSTYSLSSTLTLSKADYEKHKVYACEVTHQGLSSPVTKSFNRGEC |  | binds |
| Ly2280 (bispecific antibody, PD-1/CD40: two PD-1 Fabs, central CD40 Fv (TM383)) chain 1: not shown chain 2: QVTLKESGPALVKPTQTLTLTCTFSGFSLSTSGTCVSWIRQPPGKALEWLATICWEDSKGYNPSLKSRLTISKDTSKNQAVLTMTNMDPVDTATYYCARREDSGYFWFPYWGQGTLVTVSSASTKGPSVFPLAPSSKSTSGGTAALGCLVKDYFPEPVTVSWNSGALTSGVHTFPAVLQSSGLYSLSSVVTVPSSSLGTQTYICNVNHKPSNTKVDKKVEPKSCGGGGSGGGGSGGGGSGGGGSDIQMTQSPSSVSASVGDRVTITCRASQGIYSWLAWYQQKPGKAPNLLIYTASTLQSGVPSRFSGSGSGTDFTLTISSLQPEDFATYYCQQANIFPLTFGGGTKVEIKGGGGSDKTHTCPPCPAPEAAGPSVFLFPPKPKDTLMISRTPEVTCVVVDVSHEDPEVKFNWYVDGVEVHNAKTKPREEQYNSTYRVVSVLTVLHQDWLNGKEYKCKVSNKALPAPIEKTISKAKGQPREPQVYTLPPSREEMTKNQVSLSCAVKGFYPSDIAVEWESNGQPENNYKTTPPVLDSDGSFFLVSKLTVDKSRWQQGNVFSCSVMHEALHNRFTQKSLSLSPG light: NIQMTQSPSSLSASVGDRVTITCKAGQNVNNYLAWYQQKPGKAPKVLIFNANSLQTGVPSRFSGSGSGTDFTLTISSLQPEDFATYYCQQYNSWPTFGGGTKVEIKRTVAAPSVFIFPPSDEQLKSGTASVVCLLNNFYPREAKVQWKVDNALQSGNSQESVTEQDSKDSTYSLSSTLTLSKADYEKHKVYACEVTHQGLSSPVTKSFNRGEC |  | binds |
| Ly2405 (bispecific antibody, human IgG1, kappa, PD-1/CD40: two PD-1 Fabs, terminal CD40 Fv (TM383)) chain 1: not shown chain 2: QVTLKESGPALVKPTQTLTLTCTFSGFSLSTSGTCVSWIRQPPGKALEWLATICWEDSKGYNPSLKSRLTISKDTSKNQAVLTMTNMDPVDTATYYCARREDSGYFWFPYWGQGTLVTVSSASTKGPSVFPLAPSSKSTSGGTAALGCLVKDYFPEPVTVSWNSGALTSGVHTFPAVLQSSGLYSLSSVVTVPSSSLGTQTYICNVNHKPSNTKVDKKVEPKSCDKTHTCPPCPAPEAAGPSVFLFPPKPKDTLMISRTPEVTCVVVDVSHEDPEVKFNWYVDGVEVHNAKTKPREEQYNSTYRVVSVLTVLHQDWLNGKEYKCKVSNKALPAPIEKTISKAKGQPREPQVYTLPPSREEMTKNQVSLSCAVKGFYPSDIAVEWESNGQPENNYKTTPPVLDSDGSFFLVSKLTVDKSRWQQGNVFSCSVMHEALHNRFTQKSLSLSPGGGGGSGGGGSGGGGSGGGGSDIQMTQSPSSVSASVGDRVTITCRASQGIYSWLAWYQQKPGKAPNLLIYTASTLQSGVPSRFSGSGSGTDFTLTISSLQPEDFATYYCQQANIFPLTFGGGTKVEIK light: NIQMTQSPSSLSASVGDRVTITCKAGQNVNNYLAWYQQKPGKAPKVLIFNANSLQTGVPSRFSGSGSGTDFTLTISSLQPEDFATYYCQQYNSWPTFGGGTKVEIKRTVAAPSVFIFPPSDEQLKSGTASVVCLLNNFYPREAKVQWKVDNALQSGNSQESVTEQDSKDSTYSLSSTLTLSKADYEKHKVYACEVTHQGLSSPVTKSFNRGEC |  | binds |
